Reference: publication PMC7813410, “Intraperitoneal insulin administration in pigs: effect on circulating insulin and glucose levels” (BMJ Open Diabetes Research & Care, 2021)
Read-outs that look alike come from different tables or passages of the source.

What was measured:
pigs = test: Blood glucose after intraperitoneal insulin boluses in anesthetized pigs; assay type: in vivo, pig; settings: mean±SE
Experimental: In every stall, a heating lamp was provided.
(§1) The somatostatin analogs were injected 1 hour before the first insulin bolus of the day. 0.4 mg octreotide was injected intravenously and 0.3 mg pasireotide was injected subcutaneously. The octreotide injections were repeated hourly and the pasireotide injections were repeated every 3 hours during the trial.
To prevent hypoglycemia, a continuous venous glucose infusion was provided through the left internal jugular vein and was continued for the duration of the experiment. The blood glucose levels were kept in the range of 4.5–5.5 mmol/L before each insulin bolus was given.
In the first pig, we tested different glucose infusion rates to identify a suitable rate. In the remaining seven pigs, a constant glucose infusion rate of 8 g/hour was used throughout the experiments.
For both trials, arterial blood samples for glucose analysis were collected in heparinized syringes (LEO Pharma). Samples were analyzed on a Radiometer ABL 725 blood gas analyzer (Radiometer Medical, Brønshøj, Denmark). All blood samples were placed on ice immediately after extraction from the pigs. Most samples were analyzed consecutively, but some samples were stored on ice for a maximum of 20 min before analysis.
In the main trial, samples were collected 10, 5 and 1 min prior to the first somatostatin analog injection, every 10 min for the first hour after Sandostatin injection, every minute for the first 10 min after the insulin bolus, and every fifth minute thereafter for the next 110 min.
From the main trial, data from the last seven pigs were used for statistical analysis. We assumed the glucose levels at −5 min to be the baseline glucose levels at the start before each bolus (online supplemental figure S1).
Treatment and time were the sources of variation. […] Statistics were performed with GraphPad Prism V.8 Statistics.

[1] = Text: Between January 2017 and August 2018, eight juvenile, non-diabetic, cross-bred pigs (50% Landswine, 50% Yorkshire) approximately 3 months of age (one male (36.2 kg) and seven females (39.5±2.7 kg)) were brought from the same local farmer approximately 1 week before the trials and acclimatized to the staff and new environment. Whenever possible, the pigs were kept in groups in a common stall (11.2 m^2) with concrete floor covered with woodchips. In every stall, a heating lamp was provided. In the facility, a day-night photoperiod (night: 21:00–05:00, dawn: 05:00–07:00, day: 07:00–19:00, dusk: 19:00–21:00) was maintained at 22°C and a relative humidity of 45%±5%. The pigs were fed standard food (Format Vekst 100, Felleskjøpet, Norway) and fresh water was available ad libitum. Food was removed 17 hours before the start of the trial while water was available until anesthesia was initiated.
In the main trial, the first pig was used to obtain information about optimal infusion rate of glucose to maintain stable glucose levels throughout the trial days. The second pig was used to confirm the chosen infusion rate. The remaining six pigs were used to study the pharmacokinetics and pharmacodynamics of intraperitoneally delivered insulin boluses. However, all pigs received boluses of 2, 5 and 10 U of insulin (1 U/s) in the upper right quadrant of the intraperitoneal cavity. The order of insulin boluses for the first two pigs was 2, 5 and 10 U. The order of boluses for the last six pigs was randomized.[6] There were at least 2 hours and 30 min between each bolus.
At the start of every trial day, a fresh insulin analog (100 U/mL, NovoRapid, Novo Nordisk, Denmark) was inserted in an insulin pump (Animas Vibe).
(§2) In the main trial, all pigs (n=7) received three insulin boluses (2, 5 and 10 U) in the upper right intraperitoneal space. In the additional trial, insulin boluses were injected into the subcutaneous tissues in the left side of the neck. Two pigs received 10 U boluses and one pig received a 5 U bolus.
(§3) In both trials, blood samples for insulin analysis were stored on ice for at least 10 min before centrifugation (10 min at 2.000× rpm in a refrigerated centrifuge). Plasma was collected from the samples immediately after centrifugation and transferred into empty Eppendorf Tubes and temporarily stored at −20°C. At the end of each trial day, plasma samples were stored at −80°C.
(§4) Plasma insulin was analyzed as singles by Iso-Insulin ELISA kit (10-1128-01, Mercodia, Uppsala, Sweden). Suppression of endogenous insulin secretion was verified by analyses of Porcine Insulin ELISA (10-1200-01, Mercodia) according to the manufacturer’s protocol. The results were converted from mU/L to pmol/L by a conversion factor 6, as recommended by the manufacturer. The lowest detectable insulin concentration for the Iso-Insulin ELISA kit was <3.0 mU/L (18 pmol/L) and for Porcine Insulin ELISA was <2.3 mU/L (13.8 pmol/L).
Delta values collected from the main trial with different insulin boluses (2, 5 and 10 U) in the pigs were analyzed. In order to estimate possible significant differences in circulating insulin and blood glucose levels after IP insulin boluses, a two-way repeated measures analysis of variance was performed. Treatment and time were the sources of variation. Tukey’s multiple comparisons test was used for distinguishing comparisons between different insulin boluses. All non-measurable insulin values were set at 18 pmol/L. All treatments are compared as models; therefore, comparison between unequal groups is allowed. Statistics were performed with GraphPad Prism V.8 Statistics. All values are given as mean±SD, unless stated otherwise. Differences between the groups were considered significant if p≤0.05.

[2] = remark: listed apart in the source
Text: We also performed an additional trial to investigate subcutaneous insulin dynamics and effect on blood glucose levels, performed under similar conditions. For more details, see online supplemental material section 'Additional trial'. In short, between May 2019 and January 2020, three juvenile, non-diabetic, cross-bred male pigs (50% Landswine, 50% Yorkshire) approximately 3 months of age weighing 39.5±4.3 kg were brought from the same local farmer and kept in the conditions as in the main trial.
In the additional trial, two pigs received 10 U subcutaneous insulin boluses and one pig received a 5 U subcutaneous insulin bolus. All subcutaneous insulin boluses were performed as the first bolus of the day.
Additionally, all pigs received an intraperitoneal glucagon bolus (150 µg) 40 min after the insulin bolus.
as §2, §3, §4

[3] = in vitro model; cited from earlier work
Text: The liver is the major organ involved in glucose homeostasis.

[4] = system: endogenous insulin secretion; test: Suppression of endogenous insulin secretion by somatostatin analogs (Porcine Insulin ELISA); assay type: in vivo, pig; settings: octreotide 0.4 mg IV hourly together with pasireotide 0.3 mg SC every 3 hours, pigs, no detectable levels
Experimental: To suppress the endogenous insulin and glucagon secretion, all pigs received the somatostatin analogs octreotide (Sandostatin 200 µg/mL, Novartis Europharm, UK) and pasireotide (Signifor 0.3 mg/mL, Novartis Europharm).
as §1

[5] = 5 U subcutaneous bolus, n=1 pig
[6] = 10 U subcutaneous boluses, n=2 pigs

Substance: insulin: fresh insulin analog (100 U/mL, NovoRapid, Novo Nordisk, Denmark) delivered by insulin pump
- decrease of estimated mean blood glucose level after 5 U compared with 2 U intraperitoneal insulin boluses (pigs; 5 U vs 2 U IP bolus, anesthetized non-diabetic pigs, n=7, 120 min after bolus, glucose infusion 8 g/hour, 95% CI 0.31 to 0.65, p<0.0001): 0.48 ± 0.07 mmol/L
- decrease of estimated mean blood glucose level after 10 U compared with 2 U intraperitoneal insulin boluses (pigs; 10 U vs 2 U IP bolus, anesthetized non-diabetic pigs, n=7, 120 min after bolus, glucose infusion 8 g/hour, 95% CI 0.44 to 0.79, p<0.0001): 0.61 ± 0.07 mmol/L
- change of mean blood glucose level after 10 U compared with 5 U intraperitoneal insulin boluses (pigs; 10 U vs 5 U IP bolus, n=7 pigs, 95% CI −0.04 to 0.30, p=0.184, not different): 0.13 ± 0.07 mmol/L
- effect on mean circulating insulin level ([1]; 2 U IP bolus, n=7 pigs): did not increase
- effect on mean circulating insulin level ([1]; 5 U IP bolus, n=7 pigs): did not increase
- mean circulating insulin levels after 5 U compared with 2 U intraperitoneal insulin boluses ([1]; 5 U vs 2 U IP bolus, n=7 pigs, p=0.89): not different
- time after which mean circulating insulin level was close to baseline ([1]; 10 U IP bolus, n=7 pigs): 80 min
- time after which mean insulin level started to increase ([1]; 10 U IP bolus, n=7 pigs): 10 min
- increase of mean circulating insulin level after 10 U compared with 2 U intraperitoneal insulin boluses ([1]; 10 U vs 2 U IP bolus, n=7 pigs, plasma, Iso-Insulin ELISA, mean±SE, 95% CI 1.99 to 5.37, p<0.0001): 7.89 ± 1.07 pmol/L
- increase of mean circulating insulin level after 10 U compared with 5 U intraperitoneal insulin boluses ([1]; 10 U vs 5 U IP bolus, n=7 pigs, plasma, Iso-Insulin ELISA, mean±SE, 95% CI 5.86 to 10.89, p<0.0001): 8.37 ± 1.07 pmol/L
- first-pass effect in the liver ([1]; after the smaller (2 and 5 U) IP insulin boluses, inferred from circulating insulin levels in pigs): ~100%
- time after bolus at which insulin level was increased [2, 5]: 5 min
- time at which insulin levels were still elevated [2, 5]: 140 min
- time after boluses at which mean insulin level was increased [2, 6]: 5 min
- time at which insulin levels were still elevated [2, 6]: 140 min
- mean circulating insulin level after subcutaneous compared with intraperitoneal insulin boluses ([2]; subcutaneous (5 U n=1, 10 U n=2) vs IP boluses (n=7), p value not calculated): increased more
- hepatic first-pass effect [3]: up to 80%

Substance: octreotide
- endogenous insulin levels during the experiments [4]: < 13.8 pmol/L

Substance: pasireotide
- endogenous insulin levels during the experiments [4]: < 13.8 pmol/L
